The source of these data is patent US20100093076A1, “SOLUBLE IL-27 RECEPTOR” (priority 2006, published 2010).

By Tmax is commonly meant the time at which the peak concentration occurs. The term Cmax denotes the highest concentration seen after dosing. Broadly, the Vss is a proportionality between amount in the body and measured concentration, not a real space. Read a low Vss as confinement near the circulation.

In one data set the target is T1, single-chain mouse IL-27 (Mus musculus, UniProt O35228+Q8K3I6).
T1 sequence (O35228+Q8K3I6 with tags, fused parts or gaps): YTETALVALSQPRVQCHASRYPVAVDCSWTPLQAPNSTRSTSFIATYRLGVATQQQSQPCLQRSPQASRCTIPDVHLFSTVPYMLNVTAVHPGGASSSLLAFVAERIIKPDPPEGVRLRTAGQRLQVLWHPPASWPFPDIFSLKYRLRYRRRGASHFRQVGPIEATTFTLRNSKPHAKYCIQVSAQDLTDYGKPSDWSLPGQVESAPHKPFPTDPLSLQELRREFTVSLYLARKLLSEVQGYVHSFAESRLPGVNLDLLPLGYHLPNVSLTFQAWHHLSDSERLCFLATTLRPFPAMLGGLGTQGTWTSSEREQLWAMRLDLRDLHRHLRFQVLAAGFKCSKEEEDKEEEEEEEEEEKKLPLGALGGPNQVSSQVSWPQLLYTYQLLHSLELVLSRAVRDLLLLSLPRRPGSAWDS
Kind of data set: IL-27 inhibition of IL-2 production neutralized by IL-27RA Fc (third set of experiments). Type of data set: cell-based. Conditions: + IL-27 (10 ng/ml). The protocol: Naïve mouse CD4 T-cells were isolated as described above. For testing of the neutralizing mAbs, the naïve CD4 T cells were preincubated for 30 minutes at 37 degrees C. with graded concentrations (60, 30, 15, 7.5, 3.75, 1.875.micro.g/ml) of either neutralizing rat anti-mouse IL27RA mAb (each mAb tested separately), rat IgG1 isotype control mAb, rat IgG2a isotype control mAb, or no mAb. […] The CD4 T cells (4×10^5/well) were then transferred to anti-CD3 coated tissue culture plates. Single-chain mouse IL-27 (10 ng/ml) was then added to the plates. Duplicate plates were set up for all experimental conditions. The plates were then cultured at 37 degrees for up to 72 hours.
For testing of the soluble receptor, single-chain mouse IL-27 (10 ng/ml) was preincubated for 30 minutes at 37 degrees C. with either IL27RAm(mFc1) (10.0 and 5.0.micro.g/ml), IL27RA-Fc5, mouse Fc1 protein (10.0 and 5.0.micro.g/ml), human Fc5 protein (10.0 and 5.0.micro.g/ml), or no recombinant protein in wells of the anti-CD3 coated plates. 4×10^5 CD4^+ CD62L high cells were added to the wells. Duplicate plates were set up for all experimental conditions. The plates were then cultured at 37 degrees for up to 72 hours. Cell supernatants were collected from one set of plates at 48 hours and from the duplicate set of plates at 72 hours. The supernatants were stored frozen at −80° C.

A short description of data set [1]: Pharmacokinetics of soluble receptors in female C57B1/6 mice (serum ELISA, noncompartmental analysis). It counts as in vivo, mouse. Conditions: for AUCINF: extrapolated to infinity. The protocol: Studies were performed to evaluate the pharmacokinetics of the mouse (IL-27RAm(mFc1)) and human (IL-27RA-Fc5) soluble receptors in female C57B1/6 mice.
Serum was generated from each sample and analyzed by a qualified enzyme-linked immunosorbant assay (ELISA). The resulting mean serum concentration versus time profiles were then subjected to noncompartmental pharmacokinetic analyses. The following pharmacokinetic parameters were calculated: C0 and Cmax (extrapolated concentration at time zero and maximum serum concentration, respectively), Tmax (time to achieve maximum concentration), t1/2 λz (terminal half-life), AUC0-t (area under the concentration versus time curve from time zero to the last measurable time point), AUCINF (area under the concentration versus time curve extrapolated to infinity), C1 or C1/F (clearance or clearance divided by bioavailable fraction, respectively), VSS or VZ/F (steady state volume of distribution or volume of distribution divided by the bioavailable fraction, respectively), and F (bioavailable fraction).

Where “and” joins values, the source holds several entries; their conditions need not be identical. Equal values may be shown once.

B1: IL-27RAm(mFc1): Extracellular domain of mouse IL27RA fused to a wild type BALB/c mouse gamma2a constant region Fc tag (protein)
chain: MNRLERVALARLETPRLEGLLELELESLEMSLELELEGTRPRHGSPRGPRLEQCYSVGPRLEGILENCSWGLPRLEGDLEGLTPRPRVLEYHQSQKYHPRNRVWGLVKVPRSKQSWVTIPRRGLQFTMADKLELEIWGTQKGRPRLEWSSVSVASNLEGLTQMKPRDTPRQIFSQVASPISGLGLATLEGLATVQWAPRPRVWPRPRQKALETCQFRYKGLCQAGLAWTRLEGLPRQLEKTDGLETPRVGLMQNLEGLPRGTCYQVSGRCQVGLNGYPRWGGLWSSPRLESFQTPRFLEDPRGLDVWVSGTVCGLTSGKRAALELEVWKDPRRPRCVQVTYTVWFGAGDITTTQGLGLVPRCCKSPRVPRAWMGLWAVVSPRGNSTSWVPRPRTNLESLEVCLEAPRGLSAPRCDVGVSSADGSPRGIKVTWKQGTARGSPRLEGLYVVASPWAQDGDSLEDKLENWTRLEPRPRGNLESTLELEPRGGLFKGGVPRYRITVTAVYSGGLEAAAPRSVWGFRGLGLLEVPRLEAGPRAVWRLEPRDDPRPRGTPRVVALAWGGLVPRRHQLERGQATHYTFCIQSRGLESTVCRNVSSQTQTATLEPRNLEHSGSFKLEWVTVSTVALAGQGPRPRGPRDLESLEHLEPRDNRIRWKALEPRWFLESLEWGLELELEMGCGLESLEASTRCLEQARCLEHWRHKLELEPRQWIWGLRVPRDPRANSNSGQPRYIKGLVSLEPRQPRPRKDGPRILEGLVGLGLVGLLEQPRVVGLSPRKASAPRIYSGYGLKHFLEPRTPRGLGLLEGLELEV
modifications: left off: a dimerising Fc or GST
notes: Extracellular domain of mouse IL27RA fused to a wild type BALB/c mouse gamma2a constant region Fc tag
For B1, in the data set with single-chain mouse IL-27 (48 hr, protein conc. 5 (μg/ml; Fc controls in molar equiv.)), the IL-2 concentration was 4021.15 pg/mL. Also, the IL-2 concentration with single-chain mouse IL-27 (48 hr, protein conc. 10 (μg/ml; Fc controls in molar equiv.), listed as mIL-27RA) was 5215.59 pg/mL and 4922.26 pg/mL. Also, in the data set with single-chain mouse IL-27 (72 hr, protein conc. 5 (μg/ml; Fc controls in molar equiv.)), the IL-2 concentration is 5744.95 pg/mL. Besides, the IL-2 concentration with single-chain mouse IL-27 (72 hr, protein conc. 10 (μg/ml; Fc controls in molar equiv.), listed as mIL-27RA) was 6704.62 pg/mL and 12186.7 pg/mL. In data set [1] (IP, 100 μg), the AUC0-24 came out at 98.2 µg·h/mL, the Cl/F was found to be 0.983 mL/h, the Tmax was 1 h and the “t1/2 λz (terminal half-life)” value amounted to 5.17 h. Moreover, in data set [1] (IP, 100 μg), the AUCINF is 102 µg·h/mL. This molecule also had a peak concentration (Cmax) in data set [1] (IP, 100 μg, mouse serum) of 13200 ng/mL. In addition, in data set [1] (IV, 100 μg), the AUC0-24 worked out at 157 µg·h/mL, the Cl came out at 0.618 mL/h, the Vss was 3.05 mL and the “t1/2 λz (terminal half-life)” value was found to be 5.25 h. Besides, the AUCINF in data set [1] (IV, 100 μg) is 162 µg·h/mL. Besides, in data set [1] (IV, 100 μg, mouse serum), the “Co (extrapolated concentration at time zero)” value was 36.2 µg/mL. In data set [1] (SC, 100 μg), the AUC0-24 is 56.5 µg·h/mL and the time to peak (Tmax) was 3 h. Further, in data set [1] (SC, 100 μg, mouse serum), the Cmax was 7950 ng/mL. Moreover, the “clearance compared to IL-27RA-Fc5” value in data set [1] (female C57B1/6 mice) was “more rapid clearance”.
